Read-outs that look alike come from different tables or passages of the source.
Assays:
[1] = molecular target: voltage-gated potassium ion channel KvAP (Aeropyrum pernix) (UniProt Q9YDF8); assay: native gel or EMSA; detergent-free clear native PAGE (CNE) of Glyco-DIBMA nanodiscs, 4 °C, fluorescence imaging
[2] = molecular target: voltage-gated potassium ion channel KvAP (Aeropyrum pernix) (UniProt Q9YDF8); assay: SEC; Glyco-DIBMA native nanodiscs with labelled protein after Ni2+ affinity chromatography; absorbance at 280, 650 and 665 nm; oligomer peak at 10-11 mL
[3] = molecular target: voltage-gated potassium ion channel KvAP (Aeropyrum pernix) (UniProt Q9YDF8); assay: native gel or EMSA; high-resolution clear native PAGE (hrCNE) with 0.01% DDM and 0.05% sodium deoxycholate, Glyco-DIBMA nanodiscs, 4 °C, fluorescence imaging
[4] = molecular target: voltage-gated potassium ion channel KvAP (Aeropyrum pernix) (UniProt Q9YDF8); assay: fluorescence correlation spectroscopy (molecular brightness per nanodisc); Alexa Fluor 647-labelled protein in Glyco-DIBMA native nanodiscs; oligomer fraction after SEC and bands resolubilised from native gels; brightness compared with the free dye (ruler, 7.5 kHz); nM concentrations; standard buffer 150 mM NaCl or KCl, 50 mM Tris-HCl, pH 8
[5] = molecular target: voltage-gated potassium ion channel KvAP (Aeropyrum pernix) (UniProt Q9YDF8); assay: as above; remark: listed apart in the source
[6] = molecular target: voltage-gated sodium ion channel NavMs; assay: SEC; Glyco-DIBMA native nanodiscs with labelled protein after Ni2+ affinity chromatography; absorbance at 280, 650 and 665 nm; oligomer peak at 10-11 mL
[7] = molecular target: voltage-gated sodium ion channel NavMs; assay: native gel or EMSA; high-resolution clear native PAGE (hrCNE) with 0.01% DDM and 0.05% sodium deoxycholate, Glyco-DIBMA nanodiscs, 4 °C, fluorescence imaging
[8] = molecular target: voltage-gated sodium ion channel NavMs; assay: fluorescence correlation spectroscopy (molecular brightness per nanodisc); Alexa Fluor 647-labelled protein in Glyco-DIBMA native nanodiscs; oligomer fraction after SEC and bands resolubilised from native gels; brightness compared with the free dye (ruler, 7.5 kHz); nM concentrations; standard buffer 150 mM NaCl or KCl, 50 mM Tris-HCl, pH 8
[9] = molecular target: the molecule itself; assay: SEC; Glyco-DIBMA native nanodiscs with labelled protein after Ni2+ affinity chromatography; absorbance at 280, 650 and 665 nm; oligomer peak at 10-11 mL
[10] = molecular target: the molecule itself; assay: fluorescence correlation spectroscopy (molecular brightness per nanodisc); Alexa Fluor 647-labelled protein in Glyco-DIBMA native nanodiscs; oligomer fraction after SEC and bands resolubilised from native gels; brightness compared with the free dye (ruler, 7.5 kHz); nM concentrations; standard buffer 150 mM NaCl or KCl, 50 mM Tris-HCl, pH 8

voltage-gated potassium ion channel KvAP (from UniProt Q9YDF8 1-295) (natural protein)
stoichiometry N [1]: 4 | stoichiometry N [2]: 4 | stoichiometry N [3]: 4 | ratio of molecular brightness to the free dye (taken as the oligomeric state) [4]: 5.5 fold | ratio of molecular brightness to the free dye (taken as the oligomeric state) [5]: 4 fold

voltage-gated sodium ion channel NavMs (natural protein)
stoichiometry N [6]: 4 | stoichiometry N [7]: 4 | ratio of molecular brightness to the free dye (taken as the oligomeric state) [8]: 3 fold

B1: urea channel HpUreI L134C (natural protein)
chain: MLGLVLLYVGIVLISNGICGLTKVDPKSTAVMNFFVGGLSIICNIVVITYSALHPTAPVEGAEDIAQVSHHLTSFYGPATGLLFGFTYLYAAINHTFGLDWRPYSWYSLFVAINTIPAAILSHYSDMLDDHKVCGITEGDWWAIIWLAWGVLWLTAFIENILKIPLGKFTPWLAIIEGILTAWIPAWLLFIQHWV
modifications: Alexa Fluor 647 maleimide on the cysteine of L134C
notes: urea channel UreI (HpUreI); Studied inside Glyco-DIBMA native nanodiscs; also called bacterial hexameric urea channel
stoichiometry N [9]: 6 | ratio of molecular brightness to the free dye (taken as the oligomeric state) [10]: 6 fold

B2: glycerol uptake facilitator protein (GlpF) (natural protein, UniProt P0AER0 1-281, looked up)
chain: MSQTSTLKGQCIAEFLGTGLLIFFGVGCVAALKVAGASFGQWEISVIWGLGVAMAIYLTAGVSGAHLNPAVTIALWLFACFDKRKVIPFIVSQVAGAFCAAALVYGLYYNLFFDFEQTHHIVRGSVESVDLAGTFSTYPNPHINFVQAFAVEMVITAILMGLILALTDDGNGVPRGPLAPLLIGLLIAVIGASMGPLTGFAMNPARDFGPKVFAWLAGWGNVAFTGGRDIPYFLVPLFGPIVGAIVGAFAYRKLIGRHLPCDICVVEEKETTTPSEQKASL
modifications: Alexa Fluor 647 maleimide on cysteine (six cysteine positions, not all can be labeled)
notes: glycerol uptake facilitator protein GlpF, a bacterial aquaporin; Studied inside Glyco-DIBMA native nanodiscs; A monomeric fraction was also found; also called bacterial aquaporin; aqua(glycero)porin GlpF
stoichiometry N [9]: 4

From publication PMC12355471, “Clear Native Gel Electrophoresis for the Purification of Fluorescently Labeled Membrane Proteins in Native Nanodiscs” (Analytical Chemistry, 2025)
